Data on two substances can be found in paper PMC10163058.

In assay [1] the target is paired immunoglobulin-like receptor B (PirB), expressed on CHO cells (mouse) (UniProt P97484).
For assay [2] the target is unchanged. The source holds these as a separate data set.
The target of assay [3] is His6-tagged recombinant PirB (Abcam #ab276923) (mouse) (UniProt P97484). The experiment in a line: atomic force microscopy (single-molecule force spectroscopy); His6-PirB held on Ni2+-NTA gold-coated model surfaces; AFM tips functionalised with T3SA- virions or σ3 through a PEG linker; virus buffer; koff from Bell-Evans fit of dynamic force spectroscopy, kon from binding probability against contact time (pseudo-first-order), KD calculated from both.

As usually defined, the Kd is the constant that tells how readily two partners part at equilibrium. As a reminder, the koff is a measure of how fast the partners let go of each other. What is called kon is the second-order rate constant of association.

The substance “reovirus strain T3SA+ virions (from UniProt P03528 1-455; P07939 1-365) (complex)” displayed a decrease in infection of primary murine cortical neurons (endogenous PirB) by T3SA+ (100 PFU/cell) after incubation with 5 μg/ml PirB-specific mAb 6C1, IFA in assay [1] of 50%. In addition, the tyrosine phosphorylation of immunoprecipitated myc-tagged PirB in CHO cells after T3SA+ adsorption (immunoblot with pTyr-specific mAb cocktail) in assay [2] was above 3 fold.

For “reovirus strain T3SA- virions (from UniProt P03528 1-455; P07939 1-365) (complex)”, in assay [3], the Kd is 1.94 nM, the koff is 0.2 s⁻¹ and the on-rate constant (kon) is 1.03e+08 M⁻¹ s⁻¹.
